# Reference: patent US20190276551A1 (UNIVERSITY MEDICAL CENTER HAMBURG EPPENDORF, published 2019)
# Molecular target: T1, soluble, non-glycosylated, recombinant human CD38 (human, UniProt P28907 43-300, Alexa 647 conjugate)
# T1 construct: also called recombinant human non-glycosylated extracellular domain of CD38
# Experiment: micro-scale thermophoresis, n = 2
row,Kd,Binder
1,1.38 nM,"MU1068 (VHH, also called L-15.1b; I-15.1b) VHH: DVQLQASGGGSVQEGESLKLSCVGSGRTFSDWAMGWYRQAPGKDREFVAAVSGAGRGGKPSYANSVKGRFTVSRDNAKNTVYLQMDNLKPEDTAVYYCAADRLVLVALSIADPGFWGQGTRVTVSS"
2,1 nM,"MU397 (VHH, His6-Myc-tagged monovalent VHH; also called L-15.1a; I-15.1a) VHH: DVQLQASGGGLVQAGGSLRLSCAPSGGTFDAYDMGWYREAPGKKRQFVAAVRSGGGTTRYADSVKGRFTISRDDAKDTVFLQMNSLKPEDTALYYCAADRWGLFSLSIATPTHWGQGTQVTVSS"
3,225 nM,"MU370 (VHH, also called I-9.2a) VHH: DVQLQASGGGSVQAGGSLTLSCRYSGGFVFRVSSMGWYRQAPGNQRELIATITVGGKTNYKDSVQGRFIISRNDTTVTLQMNRLQPEDTAVYYCNLASTAVGADTWGQGTRVTVSS"
4,3 nM,"MU523 (VHH, His6-Myc-tagged monovalent VHH; also called L-19.1a; I-19.1a) VHH: DVQLQESGGGLVQAGSSLRISCAVSGVRLDNYAMGWFRQAPGKERESVAGISWSSGTLLYSDSVKGRFAISRDNAKNTVYLQMNSLKPEDTAVYYCAAQYQDRYYDEFTWKEKDMDYWGKGTLVTVSS"
5,3 nM,"MU274 (VHH, also called L-15.2a; I-15.2a) VHH: DVQLQESGGGLVQAGGSLRLSCAASGVSFSRYTMGWYREVPGKERREFVAAVRPSGDSTYYGNSVKGRFSISRDDDKNIVYLQMNSLKPEDTAVYYCAAGFPVLVALSIADPDYWGQGTQVTVST"
6,23 nM,"MU415 (VHH, also called L+15; I+15b) VHH: VQLQASGGGLVQAGGSLRLSCTVSGFTSDDYTVGWFRQAPGLKREGLSCLSRRDGRFYHSNSVKGRFTMSSDDNKNTVYLQLDSLKPDDTAVYYCAATTSVVVLLAPNWYEYWGQGTQVTVSS"

# Molecular target: T2, human CD38 protein immobilised on AR2G biosensor (human, UniProt P28907 43-300, limits assumed)
# T2 construct: Construct used on the Octet is not described; also called immobilised human CD38
# Experiment: Octet BLI, immobilised CD38
row,koff,Binder
1,< 0.00022 s⁻¹,"WF139 (VHH, His6-Myc-tagged monovalent VHH; also called s-19b; s-19.1b) VHH: SGGGLVQAGGSQRLSCAASGHTFSSYSMAWFRQAPGKEREFVAANIMSGTNTYYADSVRGRFTMSRDIAKNTVYLQMNSLKEEDTALYYCAAADRFRGWATWRDDPDQYDYWDQGTQVTVSS"
2,0.00026 s⁻¹,"WF32 (VHH, His6-Myc-tagged monovalent VHH; also called I-8.2f; family 2) VHH: QVQLQESGGGLVQAGGSLRLSCAASGIILRIYDMGWYRQAPGKQRELVAAITSGGSTNYADSVKGRFTISRDNAKSMVYLQMNSLKPEDTAVYYCNAWHVFRGNYWGQGTQVTVSS"
3,< 0.00014 s⁻¹,"WF114 (VHH, His6-Myc-tagged monovalent VHH; also called s+/-24b; s-24.1b) VHH: VQLQESGGGLVQAGGSLRLSCAASGFTFDDYVIGWFRQAPGKECEGVSSISNNNSTYYADSVKGRFTIASDNAKNTVYLQMNSLKPEDTAVYYCAADVTLNPFTGWNTRSGPMYRYEYDYWGQGTQVTVSS"
4,< 0.0003 s⁻¹,"MU1105 (VHH, His6-Myc-tagged monovalent VHH; also called I-24a; I-24.1a) VHH: DVQLQASGGGLVQAGGSLRLSCAASGFTFDDYVIGWFRQAPGKEREGVSSISSSGSIYYADSVKGRFTISSDNAKNTVYLQMNSLKPEDTAVYFCAADVTLNPFTGWDTRSGPMYRYEYDYWGQGTQVTVSS"
5,0.00054 s⁻¹,"WF140 (VHH, also called s-15a; s-15.1a) VHH: DVQLQASGGGSVQAGGSLRLSCAASGLSFSDYAMGWFRQEPGKERRFVASIRSSGGTTYAESVKGRFTISRDNAKNTMYLQMNNLKPEDTAVYYCAADRLVITKLSIADPGYWGQGTQVTVSS"

# Molecular target: T3, human CD38 on cells (human, UniProt P28907 1-300)
# T3 construct: also called native CD38; CD38 on LP-1 myeloma cells, CD38-transfected NIH-3T3 cells, blood leukocytes, CD38-transfected DC27.10 cells
# Experiment: binding assays of Example 4
row,binding result,Binder
1,binds,"JK12 (VHH, His6-Myc-tagged monovalent VHH; also called I-9.1a; family 4) VHH: QVQLQESGGGLVQPGGSLRLSCVASERIFSRNTMGWYRQAPGKQRELVARIASLGITNYADSVKGRFTISSDNAKNTVYLQMNNLKPEDTAVYYCNYWHYAAGRDYWGQGTQVTVSS"
2,binds,"Jk42 (VHH, His6-Myc-tagged monovalent VHH; also called I-9.1d; family 4) VHH: QVKLQESGGGLVQPGGSLRLSCVASERIFSRNTMGWYRQAPGKQRELVAYITSLGIANYADSVKGRFTISSDNAKNTVYLQMNNLKSEDTAVYNCNYWHYAAGRDYWGQGTQVTVSS"
3,binds,"Jk14 (VHH, His6-Myc-tagged monovalent VHH; also called I-9.1b; family 4) VHH: EVQLVESGGGLVQAGGSLRLSCVASERIFSRNTMGWYRQAPGKQRELVARIASLGITNYADSVKGRFTISSDNAKNTVYLQMNNLKPEDTAVYYCNYWHYAAGRDYWGQGTQVTVSS"
4,binds,"MU1065 (VHH, His6-Myc-tagged monovalent VHH; also called I-19.1b; family 19) VHH: DVQLQESGGGLVQAGDSLRLSCAASGPHFNNYAIGWFRQAPGKEREFVAGISWSSGSLLYSDSVKGRFTISRDNDKNTAYLQMNSLKPEDTALYYCAAQYQERYYSDFSLKEKGMEYWGKGTLVTVSS"
5,binds,"MU727 (VHH, His6-Myc-tagged monovalent VHH; also called s-14.1d; family 9) VHH: DVQLQASGGGLVQAGGSLRLSCAGSGRTFSSYAMGWFRQAPGKEREFVASISWSGSRTNYGVPVKGRFTISRDNAKNTVYLQMSSLKPEDTAVYYCAADRFAVAIGTHDLDYWGQGTQVTVSS"
6,binds,"Jk24 (VHH, His6-Myc-tagged monovalent VHH; also called I-8.2c; family 2) VHH: QVQLQESGGGLVQPGGSLRLSCAASGIILRIYDMGWYRQAPGKQRELVAEITSGGSTNYADSVKGRFTISRDNAENTVSLQMNSLKPGDTAVYYCNAHHTFAGAYWGQGTQVTVSS"
7,binds,"Jk31 (VHH, His6-Myc-tagged monovalent VHH; also called I-8.2d; family 2) VHH: QVQLQESGGGLVQPGGSLRLSCAASGIILRLYDMGWYRQTPGKQRELVAEITSGGSTNYADSVKGRFTISRDNAENTVSLQMNSLKSGDTAVYYCNADHTFAGVYWGQGTQVTVSS"
8,binds,"Jk32 (VHH, His6-Myc-tagged monovalent VHH; also called I-8.2e; family 2) VHH: QVQLQESGGGLVQPGGSLRLSCAASGSTLRLYDMGWYRQADGKQRELVAEITSGGSTNYANSVKGRFTISRDNAENTVSLQMNSLKPEDTAVYYCNAEHTFMGAYWGQGTQVTVSS"
9,binds,"Jk30 (VHH, His6-Myc-tagged monovalent VHH; also called I-8.2b; family 2) VHH: QVQLQESGGGLVQPGGSLRLSCAASGIILRIYDMGWYRQAPGKQRELVAAITSGGRTNYADSVKGRFTISRDNAENTVSLQMNSLKSGDTAVYYCNADHTFAGVYWGQGTQVTVSS"
10,binds,"Jk46 (VHH, His6-Myc-tagged monovalent VHH; also called family 7) VHH: QVQLQESGGGLVQAGGSLRLSCAASGRTFSSVAMGWFRQAPGKEREFVATINWSGGRTTYADSVKGRFTISRDSAKNTVYLQMNSLKPEDTAVYYCAADRFSVVAVEYDYWGQGTQVTVSS"
11,binds,"MU1103 (VHH, His6-Myc-tagged monovalent VHH; also called s-24.1c; family 22) VHH: DVQLQASGGGLVQAGGSLRLSCAASEFTFDDYVIGWFRQAPGKEREGVSSISSDGSTYYADSVKGRFTISSDNAKNTVYLHMNSLKPEDTAVYYCAADVTLNPFTGWTTRSGPMYRYEYDYWGQGTQVTVSS"
12,binds,"WF129 (VHH, His6-Myc-tagged monovalent VHH; also called I-17.1b; family 18) VHH: DVQLQASGGGLVQAGGSLRLSCEFSGRTFSGFAMGWFRQFPGKEREFVAAINWSGSSVDYSDSVKGRFTISRDNVKSTMYLVMNSLKPEDTAVYYCAEARSAELGSSRKIQGYDQWGRGTQVTVSS"
13,binds,"WF141 (VHH, His6-Myc-tagged monovalent VHH; also called I-17.1c; family 18) VHH: DVQLQASGGGLVQAGGSLRLSCEFSGRTFSGFAMGWFRQFPGKEREFVAAINWSGSSVDYSDSVKGRFTISRDNVKSTMYLVMNSLKPEDTAVYYCAEARSAELGSSRKIQGYDQWGRGTRVTVSS"
14,binds,"Jk20 (VHH, His6-Myc-tagged monovalent VHH; also called I-13.1a; family 8) VHH: QVQLQESGGGLVQAGGSLRLSCAISGRTFIADMGWFRQAPGKEREFQAGITWFGGSTYYADSVKGRFTISRDNTKNTLYLQMNSLKPEDTAIYYCAAGLKRIGDQREADYWGQGTQVTVSS"
15,binds,"Jk27 (VHH, His6-Myc-tagged monovalent VHH; also called s-13.1a; family 8) VHH: EVQLVESGGGLVQAGGSLRLSCAISGRTFIADMGWFRQAPGKEREFQAGITWFGGSTYYADSVKGRFTISRDNTKNTLYLQMNSLKPEDTAIYYCAAGLKRIGDQREADYWGQGTQVTVAS"
16,binds,"Jk26 (VHH, His6-Myc-tagged monovalent VHH; also called I-13.1b; family 8) VHH: QVQLQESGGGLVQAGGSVRLSCAISGRTFINDMGWFRQAPGKEREFQAGITWFGGSTYYADSVKGRFTISRDNTKNTLYLQMNSLKPEDTAIYYCAAGLKRIGDQREADYWGQGTQVTVSS"
17,binds,"Jk25 (VHH, His6-Myc-tagged monovalent VHH; also called I-9.3a; family 6) VHH: QVKLQESGGGLVQPGGSLRLSCVASGSISSIITMGWYRQAPGKQREFVARVIIGGSTGYADSVKGRFTISRDNTKNTVYLEMNSLKPEDTAVYYCNAGNPGTSYHYWGQGTQVTVSS"
18,binds,"Jk34 (VHH, His6-Myc-tagged monovalent VHH; also called I-14.2c; family 11) VHH: QVQLQESGGRLVQPGGSLRLSCAASGRTFSNYAMAWFRQGPGKEREFVAAISAADSTLYADFVKGRFTISRDNAKNTVYLQMNSLKPEDTAVYYCAARWWIAVRAPAEYNYWGQGTQVTVSS"
19,binds,"Jk35 (VHH, His6-Myc-tagged monovalent VHH; also called I-14.2d; family 11) VHH: QVKLQESGGRLVQPGGSLRLSCAASGRTFSNYAMAWFRQGPGKEREFVAAISAADSTLYADFVKGRFTISRDNAKNTVYLQMNSLKPEDTAVYYCAARWWIAVRAPAEYNYWGQGTQVTVSS"
20,binds,"MU413 (VHH, His6-Myc-tagged monovalent VHH; also called I-15.2b; family 13) VHH: DVQLQASGGGLVQTGDSLTVSCAASGLSFTRYTMGWYREVPGKERREFVAAVKPAGDSAYYGASVKGRFTASRDNAKNTVTLQMNSLKPEDTAIYYCAAGFPVLTALHIADPDYWGQGTQVTVSP"
